Experimental data reported in patent US20200262914A1 (MIT, published 2020).

B1: srt.MF02 (peptide)
peptide: Ac-RWIDQIAQFLRRIGDHIEKYIER-NH2
notes: synthetic solution peptide; also called MF2
B2: srt.MF06 (peptide)
peptide: Ac-RRVDEIAQILRRIGDNVTTYIER-NH2
notes: synthetic solution peptide; also called MF6
B3: srt.X1 (peptide)
peptide: Ac-QTLIWYGASLRRYADEFAKQRER-NH2
notes: synthetic solution peptide; also called srt.X01
B4: srt.X7 (peptide)
peptide: Ac-QPLIWFGAQLRRGADEFAAQRER-NH2
notes: synthetic solution peptide; also called srt.X07
B5: srt.M1 (peptide)
peptide: Ac-RSELEVVQELVRIGDIVVAYFER-NH2
notes: synthetic solution peptide; also called vM1
B6: srt.M9 (peptide)
peptide: Ac-RSQYEVIQELIRIGDIVLAYFER-NH2
notes: synthetic solution peptide; also called vM9

These binders were tested against T1, human Bfl-1 (residues 1-151) (human, UniProt Q16548 1-151) (assay: yeast surface display).
T1 construct: range 1-151
T1 sequence (looked up): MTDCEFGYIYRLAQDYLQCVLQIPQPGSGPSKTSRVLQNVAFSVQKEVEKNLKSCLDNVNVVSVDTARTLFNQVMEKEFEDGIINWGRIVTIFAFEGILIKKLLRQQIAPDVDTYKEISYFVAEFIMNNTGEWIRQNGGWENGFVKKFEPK
GRRVDEIAQILRRIGDNVTTYI (also called MF6) [MF06]: binds. GRRIDEIAQILRRIGDHIEKYI [MF01]: binds. GRRIDEIAQILRRIGDHVEKYI [MF05]: binds. GRRVDEIAQILRRIGDNIEEYI [MF03]: binds. GRRVDEIAQILRRIGDNINEYI [MF04]: binds. GRRVDEIAQILRRIGDQIEEYI [MF07]: binds. GRWIDQIAQFLRRIGDHIEKYI (also called MF2) [MF02]: binds.

The binders below were run against T2, human Mcl-1 (residues 172-327) (human, UniProt Q07820 172-327) (assay: yeast surface display).
T2 construct: range 172-327
T2 sequence (Q07820 172-327 limits assumed): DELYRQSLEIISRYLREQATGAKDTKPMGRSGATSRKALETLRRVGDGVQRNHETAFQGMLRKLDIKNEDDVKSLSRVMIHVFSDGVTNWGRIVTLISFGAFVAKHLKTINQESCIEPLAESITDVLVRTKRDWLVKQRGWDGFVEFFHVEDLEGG
GRRVDEIAQILRRIGDNVTTYI (also called MF6) [MF06]: binds. GRRIDEIAQILRRIGDHIEKYI [MF01]: binds. GRRIDEIAQILRRIGDHVEKYI [MF05]: binds. GRRVDEIAQILRRIGDNIEEYI [MF03]: binds. GRRVDEIAQILRRIGDNINEYI [MF04]: binds. GRRVDEIAQILRRIGDQIEEYI [MF07]: binds. GRWIDQIAQFLRRIGDHIEKYI (also called MF2) [MF02]: binds.

The binders below were run against T3, human Bcl-xL (residues 1-209) (human, UniProt Q07817 1-209) (assay: yeast surface display).
T3 construct: range 1-209
T3 sequence (Q07817 1-209 limits assumed): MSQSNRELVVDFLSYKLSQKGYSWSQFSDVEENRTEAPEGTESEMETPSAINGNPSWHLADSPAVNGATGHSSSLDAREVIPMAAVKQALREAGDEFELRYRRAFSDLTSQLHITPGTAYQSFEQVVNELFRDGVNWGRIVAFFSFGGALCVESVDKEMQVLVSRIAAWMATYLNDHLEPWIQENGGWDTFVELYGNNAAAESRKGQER
GRRIDEIAQILRRIGDHIEKYI [MF01]: binds. GRRIDEIAQILRRIGDHVEKYI [MF05]: binds. GRRVDEIAQILRRIGDNIEEYI [MF03]: binds. GRRVDEIAQILRRIGDNINEYI [MF04]: binds. GRRVDEIAQILRRIGDQIEEYI [MF07]: binds. GRWIDQIAQFLRRIGDHIEKYI (also called MF2) [MF02]: binds.

These binders were tested against T1, human Bfl-1 (residues 1-151) (assay: competition FP, solution).
Text: (§1) We used the cell-surface experiments to select six peptides, for which we determined solution Ki values using a competition fluorescence polarization (FP) assay (FIG. 3, panel d).
For B1, the “fold tighter Ki than to Bcl-xL” value was > 100 fold. In the case of B2, the “fold tighter Ki than to Bcl-xL” value is reported as > 100 fold.

These binders were tested against T2, human Mcl-1 (residues 172-327) (assay: competition FP, solution).
Text: as §1
B1 was tested, and the “fold tighter Ki than to Bcl-xL” value was > 100 fold. In the case of B2, the “fold tighter Ki than to Bcl-xL” value is reported as > 100 fold.

What follows are binders tested against T3, human Bcl-xL (residues 1-209) (assay: solution binding assays (competition FP)).
B3 was tested, and the “fold specificity for target over off-targets” value was > 1000 fold. For B4, the “fold specificity for target over off-targets” value was > 1000 fold.

Each binder was assayed against T1, human Bfl-1 (residues 1-151) (assay: yeast display, sparse titration, apparent KD;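 also: designs displayed on the yeast cell surface, binding of soluble target protein measured at four concentrations spanning nanomolar to micromolar, apparent KD estimated from this sparse titration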).
Experimental: (§2) We measured binding of the designs to 1, 10, 100 or 1000 nM of Bcl-xL, Mcl-1 and Bfl-1 using yeast cell-surface display.
In the case of GQRVVQIAAGLRRTGDQLEKYG [F6], the Kd is reported as < 100 nM. GQRVVQIAQGLRRTGDQLEKQG [F7] was tested, and the Kd was < 100 nM. In the case of GRRVVQIAAGLRRTGDQLEKQG [F8], the Kd is reported as < 100 nM. With GRRVVQIAQGLRRAGDQLEKQG [F12] the Kd was < 100 nM. GRRVVHIAAGLRRTGDQLEAQG [F3] was tested, and the Kd was < 100 nM. GQRVVHIAQGLRRTGDQLEAQG [F5] was tested, and the Kd was < 100 nM. With GQRVVHIAAGLRRTGDQLEAYG [F4] the Kd was < 100 nM. With GRRVVQIAAGLRRAGDQLEKYG [F10] the Kd was < 100 nM. In the case of GQRVVQIAQGLRRAGDQLEKYG [F11], the Kd is reported as < 100 nM. For GRRVRHIAQGLRRAGDQLDAYG [F1], the Kd was < 100 nM. With GQRVRHIAQGLRRTGDQLDAYG [F2] the Kd was < 100 nM. For GRRVRHIAQGLRRAGDQLDKYG [F9], the Kd was < 100 nM.

What follows are binders tested against T3, human Bcl-xL (residues 1-209) (assay: yeast display, sparse titration, apparent KD;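 also: designs displayed on the yeast cell surface, binding of soluble target protein measured at four concentrations spanning nanomolar to micromolar, apparent KD estimated from this sparse titration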).
Experimental: as §2
For GQRLIWYGAQLRRYADDFAKQR [X10], the Kd was < 100 nM. With GQGLIWYGAQLRRVADDFAKQR [X12] the Kd was < 100 nM. For GQSLIWFGASLRRGADEFAAQR [X6], the Kd was < 100 nM. For GQTLIWFGASLRRGADEFAAQR [X11], the Kd was < 100 nM. GQPLIWFGASLRRGADEFAKQR [X3] was tested, and the Kd was < 100 nM. With GQPLIWFGAQLRRGADEFAAQR [X7] the Kd was < 100 nM.

What follows are binders tested against T1, human Bfl-1 (residues 1-151) (assay: competition FP vs fluoresceinated Bim BH3, solution).
Text: as §1
Ac-RRVVQIAAGLRRAGDQLEKYGER-NH2 [srt.F10] showed a Ki of 300 nM. With Ac-QRIIWIAAELRRAADELDKQIER-NH2 (synthetic solution peptide) [srt.XF02] the Ki was 10 nM. Work on Ac-QRIIWIAAELRRAADQLDAQIER-NH2 (synthetic solution peptide) [srt.XF03] yielded a Ki of 22 nM. Ac-QRVVHIAAGLRRTGDQLEAYGER-NH2 [srt.F4] was tested, and the Ki was > 4000 nM. Work on Ac-QWAREIGAQLRRMADDLNAQYER-NH2 [Puma] yielded a Ki of 4.8 nM. Binder B1 has a Ki of 6.6 nM. Work on B2 yielded a Ki of 19 nM.

These binders were tested against T2, human Mcl-1 (residues 172-327) in the same assay as above.
Text: as §1
B5 showed a Ki of 2.4 nM. Work on Ac-QWLRWVIAELIRIADEFHAQYER-NH2 (synthetic solution peptide) [srt.MX01] yielded a Ki of 11 nM. With B6 the Ki was 0.6 nM. In the case of Ac-QWAREIGAQLRRMADDLNAQYER-NH2 [Puma], the Ki is reported as 1.69 nM. Binder B1 has a Ki of 9 nM. Binder Ac-QWLRDVVAELARIADEFHAQYER-NH2 (synthetic solution peptide) [srt.MX05] has a Ki of 100 nM. B2 showed a Ki of 5.7 nM.

The binders below were run against T3, human Bcl-xL (residues 1-209) in the same assay as above.
Text: as §1
Work on Ac-QRIIWIAAELRRAADELDKQIER-NH2 (synthetic solution peptide) [srt.XF02] yielded a Ki of 37 nM. Ac-QRIIWIAAELRRAADQLDAQIER-NH2 (synthetic solution peptide) [srt.XF03] gave a Ki of 120 nM. B3 showed a Ki of 1.32 nM. B4 was tested, and the Ki was 3.7 nM. In the case of Ac-QWLRWVIAELIRIADEFHAQYER-NH2 (synthetic solution peptide) [srt.MX01], the Ki is reported as 21 nM. In the case of B1, the Ki is reported as 1000 nM. Binder Ac-QWLRDVVAELARIADEFHAQYER-NH2 (synthetic solution peptide) [srt.MX05] has a Ki of 20 nM.

The binders below were run against T1, human Bfl-1 (residues 1-151) (assay: reported affinity; yeast cell-surface measurement presumed).
GQRVVHIAAGLRRTGDQLEAYG [F4] was tested, and the Kd was 14 nM. In the case of GRRVVQIAAGLRRAGDQLEKYG [F10], the Kd is reported as 3.2 nM.
